Data reported in patent US20200277401A1 (PANGEN BIOTECH, published 2020).

Target: T1, recombinant coagulation factor VIII protein (Homo sapiens (Human), UniProt P00451 20-2351)
T1 construct: Recombinant protein isolated from a cell culture solution; also called recombinant coagulation factor FVIII; FVIII
T1 sequence: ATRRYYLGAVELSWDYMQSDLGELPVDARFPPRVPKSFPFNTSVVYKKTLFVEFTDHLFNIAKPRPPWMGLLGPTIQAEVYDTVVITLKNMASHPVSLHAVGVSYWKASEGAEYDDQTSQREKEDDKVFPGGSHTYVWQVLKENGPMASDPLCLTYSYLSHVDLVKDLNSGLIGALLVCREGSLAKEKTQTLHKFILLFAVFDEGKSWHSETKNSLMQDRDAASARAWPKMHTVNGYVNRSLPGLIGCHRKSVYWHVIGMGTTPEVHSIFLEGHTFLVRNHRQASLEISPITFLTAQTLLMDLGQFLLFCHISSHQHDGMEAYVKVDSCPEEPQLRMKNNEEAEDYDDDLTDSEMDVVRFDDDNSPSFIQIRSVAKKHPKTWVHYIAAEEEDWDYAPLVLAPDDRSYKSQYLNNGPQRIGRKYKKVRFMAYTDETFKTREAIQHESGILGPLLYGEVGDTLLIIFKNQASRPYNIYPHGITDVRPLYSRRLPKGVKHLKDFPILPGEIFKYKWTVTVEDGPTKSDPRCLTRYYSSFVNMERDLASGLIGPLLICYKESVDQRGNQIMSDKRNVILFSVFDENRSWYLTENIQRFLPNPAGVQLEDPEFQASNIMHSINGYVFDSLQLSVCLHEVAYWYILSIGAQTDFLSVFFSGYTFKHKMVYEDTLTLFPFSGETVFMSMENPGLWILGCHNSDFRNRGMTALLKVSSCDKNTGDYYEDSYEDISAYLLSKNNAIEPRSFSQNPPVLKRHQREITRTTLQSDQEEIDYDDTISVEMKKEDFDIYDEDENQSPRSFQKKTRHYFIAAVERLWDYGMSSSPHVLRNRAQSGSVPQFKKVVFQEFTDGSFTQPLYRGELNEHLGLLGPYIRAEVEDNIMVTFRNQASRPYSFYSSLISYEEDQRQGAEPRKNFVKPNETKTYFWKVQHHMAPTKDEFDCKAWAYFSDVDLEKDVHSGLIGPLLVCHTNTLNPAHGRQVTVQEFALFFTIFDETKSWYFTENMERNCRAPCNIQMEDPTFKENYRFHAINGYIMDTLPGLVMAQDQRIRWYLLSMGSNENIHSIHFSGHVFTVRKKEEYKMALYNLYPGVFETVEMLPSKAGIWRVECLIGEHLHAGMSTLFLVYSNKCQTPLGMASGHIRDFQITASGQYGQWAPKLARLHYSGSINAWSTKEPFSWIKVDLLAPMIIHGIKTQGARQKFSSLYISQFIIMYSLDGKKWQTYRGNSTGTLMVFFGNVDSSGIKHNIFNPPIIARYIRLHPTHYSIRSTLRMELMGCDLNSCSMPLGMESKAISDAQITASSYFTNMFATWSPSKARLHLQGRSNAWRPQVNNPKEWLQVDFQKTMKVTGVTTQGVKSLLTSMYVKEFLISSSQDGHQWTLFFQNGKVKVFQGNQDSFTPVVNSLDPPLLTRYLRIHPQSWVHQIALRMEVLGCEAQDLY
Experiment: SPR, Biacore T200, FVIII immobilised on CM5 chip, antibody as analyte, 1:1 model
Procedure: The kinetic affinity (Ka, Kd, KD) between the purified antibody protein and the recombinant coagulation factor FVIII protein through antigen-antibody reaction was measured by a SPR (surface plasmon resonance) method.
The CM5 chip was mounted on a Biacore T200 instrument, and the recombinant coagulation factor FVIII protein as a ligand was diluted in a 10 mM sodium acetate buffer (pH 5.0) and injected into a sample channel for 10 minutes for immobilization. The purified antibody protein, as the analyte, was prepared at a concentration of 2 μM by diluting with a buffer and was then serially diluted to ten concentrations (0.0039, 0.0078, 0.015, 0.031, 0.062, 0.125, 0.25, 0.5, 1, 2 μM). Association and dissociation times were set to 3 minutes and 4 minutes, respectively, and association and dissociation were measured.
BIAevaluation analysis software was used to analyze the kinetic affinity of the purified antibody protein and the recombinant coagulation factor FVIII protein. The association force, dissociation force and dissociation constant were calculated as follows by applying ten concentrations of association/dissociation data to a 1:1 kinetic binding model (A+B↔AB).

- Kd: 55.3 nM
- koff: 0.00068 s⁻¹
- kon: 12300 M⁻¹ s⁻¹
B1: anti-FVIII antibody (purified antibody protein produced by the ADBA1013-14 CHO cell line from the heavy and light chain genes of hybridoma clone 3F6-2-5) (antibody, mouse IgG1, V domains shown)
VH: EVKIEESGGGLVQPGGSMKLSCAASGFTFSDAWMDWVRQSPEKGLEWVAEIRSKAKNHATNYAESVKGRFTISRDDSKSRVYLQMNTLRAEDTGIYYCTNYHFWGPGTTLTVS
VL: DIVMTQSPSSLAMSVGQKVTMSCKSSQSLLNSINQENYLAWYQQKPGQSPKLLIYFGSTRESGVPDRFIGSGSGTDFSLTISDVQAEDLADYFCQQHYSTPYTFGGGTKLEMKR
modifications: N-glycan on Asparagine No. 288 of the heavy chain
notes: The full chains are in the listing under one of these numberings; The hybridoma antibody 3F6-2-5 and the recombinant CHO product are treated as one molecule (same genes); also called purified anti-FVIII antibody protein; anti-coagulation factor VIII antibody
